# Experimental data reported in article PMC5542595.
# Target: Leptospira interrogans heme oxygenase, wild type, ferric heme complex (Leptospira interrogans)
# Assay: cross-linking
substance,measurement,value
"Leptospira interrogans ferredoxin-NADP+ reductase, wild type (enzyme)",stoichiometry N,1
